In patent US5853984, “Use of nucleic acid ligands in flow cytometry” (NeXstar Pharmaceuticals, Inc.):

Legend:
[1] = target: T1, Human neutrophil elastase (HNE) (Homo sapiens) (UniProt P08246); test: flow; settings: HNE on polystyrene beads, 2 mM MgCl2, 1% BSA, room temperature
T1 sequence: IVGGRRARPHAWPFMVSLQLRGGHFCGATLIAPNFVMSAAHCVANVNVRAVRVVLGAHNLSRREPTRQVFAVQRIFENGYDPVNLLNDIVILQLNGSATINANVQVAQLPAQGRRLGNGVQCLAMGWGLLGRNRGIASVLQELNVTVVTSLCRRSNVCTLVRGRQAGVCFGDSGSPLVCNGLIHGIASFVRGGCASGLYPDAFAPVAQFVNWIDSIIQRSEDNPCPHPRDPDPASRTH

[2] = target: T1, Human neutrophil elastase (HNE) (Homo sapiens); test: filter; settings: 150 mM NaCl, 100 mM Tris-HCl pH 7.0, 2 mM MgCl2, 6 mM KCl, 0.02% HSA, 37 C
[3] = target: T2, Human neutrophil elastase (HNE) (Homo sapiens, UniProt P08246 P08246:30-267); test: flow; second-step staining with streptavidin-phycoerythrin; affinity lower than direct fluorescence measurement; settings: tags: Athens Research and Technology, salt-free lyophilized solid; label: biotin (streptavidin-phycoerythrin); G-quartet with duplex ends
[4] = target: T2, Human neutrophil elastase (HNE); test: flow; HNE on polystyrene beads, 2 mM MgCl2, 1% BSA, room temperature; settings: tags: Athens Research and Technology, salt-free lyophilized solid; label: fluorescein; G-quartet with duplex ends
Protocol: Beads (0.5% solids) in acetate buffer were coated with HNE (0.5 μg/cm² of bead surface area) for 30 min and then washed and suspended (approx. 5×10⁵ beads/μL) in acetate buffer containing 2% BSA. HNE coated beads were stored at 4° C. until use.
Staining of HNE coated beads was achieved by incubating beads (approx. 3×10⁵) with varying concentrations of fluoresceinated oligonucleotides in 50 μL of binding buffer consisting of 100 mM Tris-HCl (pH 7.0), 0.15M NaCl, 6 mM KCl, 2 mM MgCl₂ and 1% BSA for 30 min at room temperature. The beads were then washed with 2 mL of the same buffer and suspended in 0.5 mL for analysis. Staining with mouse anti-HNE was accomplished in the same method except that bound antibody was detected by a second step fluorescein isothiocyanate (FITC) labeled antibody (X56-FITC). […] Analysis was performed on a FACScan™ flowcytometer (Becton Dickinson). The sensitivity of the flowcytometer was adjusted so that the autofluorescence of the unstained beads was located in the middle of the first decade.

[5] = target: T2, Human neutrophil elastase (HNE); test: filter; 150 mM NaCl, 100 mM Tris-HCl pH 7.0, 2 mM MgCl2, 6 mM KCl, 0.02% HSA, 37 C; settings: tags: Athens Research and Technology, salt-free lyophilized solid; label: fluorescein; G-quartet with duplex ends
[6] = two internal fluoresceins in extension
[7] = tail-to-tail dimer via symmetric 3'-3' linker (X) with ethylene glycol linkers and two fluoresceins (LFLXLFL)

Molecule: GNCACAGTCGACGATACTGCGTGGGTTGGGGCGGGTAGGGCCAGCAGTCTCGTNGACTGRGTC [DNA-EXT]
- Kd [1, 6]: 48 nM
- Kd [2, 6]: 12 nM

Molecule: TAGCGATACTGCGTGGGTTGGGGCGGGTAGGGCCAGCAGTCTCGTNNNNNNNTGCTCTGACGACCGGGATGGGCGGGGTTGGGTGCGTCATAGCGAT [DNA-DIMER-TT]
- Kd [1, 7]: 20 nM
- Kd [2, 7]: 3 nM

B1: biotinylated DNA ligand (ssDNA)
DNA: TAGCGATACTGCGTGGGTTGGGGCGGGTAGGGCCAGCAGTCTCGTT
modifications: biotin attached to 3' end through a linker
- binding result [3]: binds

B2: DNA-LNK-5F (ssDNA)
DNA: TAGCGATACTGCGTGGGTTGGGGCGGGTAGGGCCAGCAGTCTCGT
modifications: 5' fluorescein followed by two hexaethylene glycol spacers [5' fluorescein + two hexaethylene glycol spacers (n1-n3, left out) before T1]
- Kd [4]: 110 nM
- Kd [5]: 12 nM
